Patent publication US20170260282A1 (Janssen / Centocor, published 2017)

How the values were obtained:
Cyno GITR (cell surface) [1] = target: T1, Cyno GITR (cell surface) (cynomolgus monkey); experiment: MSD-CAT, GITR-expressing HEK293 cells, study 1
T1 construct: Presented on transfected or transduced HEK293 cells; also called cynomolgus monkey GITR
T1 chain: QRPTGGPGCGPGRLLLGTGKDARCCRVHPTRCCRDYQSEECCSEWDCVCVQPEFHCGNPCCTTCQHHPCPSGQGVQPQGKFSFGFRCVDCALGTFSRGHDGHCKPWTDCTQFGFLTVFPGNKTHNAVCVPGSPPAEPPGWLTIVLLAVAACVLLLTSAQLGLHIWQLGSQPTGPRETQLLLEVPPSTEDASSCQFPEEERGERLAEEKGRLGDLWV
Procedure: (§1) The MSD-CAT was developed in-house as a label-free method to determine affinity using intact cells in a high throughput format. The parental HEK293 cell line without any GITR expressed was used as a negative control.
(§2) These samples were prepared in DMEM Glutamax medium (Invitrogen, Prod #10569-044) with 0.05% Azide, 1% BSA, 3 mM EDTA. After equilibration the plates were centrifuged for 5 min at 2000 rpm and free anti-GITR mAbs are detected in the supernatant. The free anti-GITR mAbs in the mixture were detected by electrochemiluminescence (ECL) using MSD reader instrument. For detection, MSD-Streptavidin plates (MesoScale Discovery, Prod #L11SA-1) were coated with 0.1 μg/mL of biotinylated human-GITR antigen in assay buffer at 50 μL/well and equilibrated overnight (˜16 hr at 4° C.). […] After 1 hr, the plates were washed three times with wash buffer and 150 μL of MSD Read Buffer (MesoScale Discovery Cat #R92TC-1; prepared by diluting 1:3 of stock into d. H2O) were added per well. The plates were read immediately on the MSD Sector Imager 6000 Reader for luminescence levels. ECL signal detected by MSD was expressed in term of % free antibody in the mixture and the data was analyzed to determine affinity using a user defined equation (derived from the law of mass action) introduced in Prism software.

[2] = target: T2, Human GITR (cell surface) (human, UniProt Q9Y5U5 26-241); experiment: MSD-CAT, GITR-expressing HEK293 cells, study 1
T2 construct: also called hGITR; huGITR
T2 sequence: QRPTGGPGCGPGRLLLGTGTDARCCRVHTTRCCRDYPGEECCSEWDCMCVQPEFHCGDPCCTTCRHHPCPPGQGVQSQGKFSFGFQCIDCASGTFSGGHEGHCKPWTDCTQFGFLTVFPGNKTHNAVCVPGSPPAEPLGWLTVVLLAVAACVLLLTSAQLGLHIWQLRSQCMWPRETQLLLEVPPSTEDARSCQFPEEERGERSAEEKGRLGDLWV
Procedure: as §1, §2

Cyno GITR (cell surface) [3] = target: T1, Cyno GITR (cell surface); experiment: cell-based or functional assay
[4] = target: T2, Human GITR (cell surface); experiment: cell-based or functional assay
[5] = target: T3, recombinant human GITR ECD (human, UniProt Q9Y5U5 26-161); experiment: SPR (ProteOn XPR36), mAb captured by anti-human Fc, GITR ECD as analyte, 25 °C
T3 construct: also called human GITR extracellular domain
T3 sequence: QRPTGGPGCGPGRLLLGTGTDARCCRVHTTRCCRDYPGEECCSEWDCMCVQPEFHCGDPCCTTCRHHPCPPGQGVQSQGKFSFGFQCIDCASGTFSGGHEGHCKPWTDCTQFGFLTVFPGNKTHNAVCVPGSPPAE
Procedure: (§3) The affinities of the GITR antibodies to recombinant human GITR ECD were measured by Surface Plasmon Resonance (SPR) using a ProteOn XPR36 protein interaction array system (BioRad).
(§4) The rates of GITR ECD association and dissociation were measured for each variant. The biosensor surface was prepared by covalently coupling Goat anti-Human IgG (Fc) to the surface of a GLC chip (BioRad) using the manufacturer instructions for amine-coupling chemistry. Approximately 8800 RU (response units) of Goat anti-Human IgG (Fc) antibody (Jackson ImmunoResearch laboratories Prod #109-005-098) were immobilized. […] Since the mixture was 1:1 about 50% of these RU immobilized are expected to be goat anti-human Fc. The binding kinetics experiments were performed at 25° C. in running buffer (PBS pH 7.4, 0.005% P20, 3 mM EDTA). […] (1:3) serial dilutions of human GITR ECD or cyno GITR ECD starting at 100 nM were prepared in running buffer. […] The reference spots (Goat anti-Human IgG (Fc)-modified surface) containing no candidate captured were used as a reference surface. Capture of mAb was followed by 3 min injection (association phase) of antigen at 40 μL/min, followed by 10 min of buffer flow (dissociation phase). The chip surface was regenerated by injection of 0.85% phosphoric acid at 100 μL/min. Data were processed on the instrument software. Double reference subtraction of the data was performed by subtracting the curves generated by buffer injection from the reference-subtracted curves for analyte injections. Kinetic analysis of the data was performed using 1:1 Langmuir binding model with group fit. The result for each mAb was reported in the format of kon or on-rate, koff or off-rate, and KD (Equilibrium dissociation constant) (Table 7).

cyno GITR ECD = target: T4, cyno GITR ECD (cynomolgus monkey); experiment: as above
T4 construct: Only the extracellular domain stood in the SPR assay
T4 chain: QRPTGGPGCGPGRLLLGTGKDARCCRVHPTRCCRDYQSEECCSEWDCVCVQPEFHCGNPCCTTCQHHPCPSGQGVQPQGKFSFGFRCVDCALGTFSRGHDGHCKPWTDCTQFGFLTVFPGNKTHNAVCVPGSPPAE
Procedure: as §3, §4

Cyno GITR (cell surface) [6] = target: T1, Cyno GITR (cell surface); experiment: MSD-CAT, cyno against human GITR, study 1
Procedure: as §1, §2

B1: TRGB153 (antibody, human IgG1, kappa, V domains shown)
VH: QVQLVQSGAEVKKPGSSVKVSCKASGGTFSSYAISWVRQAPGQGLEWMGGIIPIFGTANYAQKFQGRVTITADESTSTAYMELSSLRSEDTAVYYCARHAWLGHLDYWGQGTLVTVSS
VL: EIVLTQSPATLSLSPGERATLSCRASQSVSSYLAWYQQKPGQAPRLLIYDASNRATGIPARFSGSGSGTDFTLTISSLEPEDFAVYYCQQRSNWPLTFGQGTKVEIKR
notes: human IgG1/kappa
- Kd (Cyno GITR (cell surface) [1]): 0.115 nM
- Kd [2]: ~0.01 nM
- ADCC EC50, HEK293-cyno GITR target cells, NK-92 FcγRIIIa 176V/V effector cells (Cyno GITR (cell surface) [3]): 2.5 ng/mL
- ADCC EC50, HEK293-hGITR target cells, NK-92 FcγRIIIa 176V/V effector cells [4]: 1.9 ng/mL
- Kd [5]: 0.0202 nM
- koff [5]: 2.02e-05 s⁻¹
- kon [5]: 996000 M⁻¹ s⁻¹
- Kd (cyno GITR ECD): 8.6 nM
- koff (cyno GITR ECD): 0.00257 s⁻¹
- kon (cyno GITR ECD): 299000 M⁻¹ s⁻¹
- KD Fold Difference (Cy/Hu) (Cyno GITR (cell surface) [6]): 11.4 fold
